Data taken from patent US6509033 (Harvard, dated 2003).

B1: Ii 97-111 (peptide)
peptide: LPKPPKPVSKMRMAT
B2: Na+/K+ ATPase 199-216 (peptide)
peptide: IPADLRIISANGCKVDNS
B3: Pseudo HLA-A2 103-117 (peptide)
peptide: VGSDWRFLRGYHQYA
B4: Bovine Fetuin 56-72 (peptide)
peptide: YKHTLNQIDSVKVWPRR
B5: Invariant Chain (Ii) 107-121 (peptide)
peptide: KMRMATPLLMQALPM
B6: β2m 52-64 (peptide)
peptide: SDLSFSKDWSFYL
B7: Transferrin Recpt. 680-696 (peptide)
peptide: RVEYHFLSPYVSPKESP

Target: 'Empty' HLA-DR1 purified from insect cells expressing recombinant DR1 cDNA (human)

Binder	Ki
B1	> 10000 nM
B2	68 nM
B3	49 nM
B4	66 nM
B5	< 10 nM
B6	> 10000 nM
B7	< 10 nM
